The results in this text go back to paper doi:10.1101/2025.08.29.673170.

As usually defined, the Kd is the free concentration of one partner at which half of the binding sites on the other are occupied at equilibrium, for simple one-to-one binding. A low value points to higher affinity.

For the assay, the target named is F-actin (pre-polymerized actin filaments) (UniProt P68135). The assay can be described thus: co-sedimentation.

On to 10xHis-SNAP-EzrABD (domain or fragment), for which the duty ratio KABD = kon/(kon + koff) worked out at 0.14.

With “10xHis-SNAP-EzrABD K577A (domain or fragment)”, the Kd was found to be 10 µM and the duty ratio KABD = kon/(kon + koff) worked out at 0.1.

With “10xHis-SNAP-UtrABD (from UniProt P46939 1-261) (domain or fragment)”, the dissociation constant Kd was 0.4 µM and the duty ratio KABD = kon/(kon + koff) turned out to be 0.71.
